Test [1] deals with HLA-A*02:01_… (HLA-PEPTIDE target G8), soluble (human, enzymatically biotinylated (BirA) for screening and BLI). The test can be described thus: BLI (Octet), biotinylated pHLA on streptavidin sensor, Fab in solution, 1:1 model.
Test [2] concerns the target HLA-A*01:01_… (HLA-PEPTIDE target G10), soluble (human, enzymatically biotinylated (BirA)). Described as above.
Test [3] addresses HLA-B*35:01_… (HLA-PEPTIDE target G5), soluble (human, enzymatically biotinylated (BirA)). Put plainly: scFv PPE ELISA.

B1: Fab clone R3G8-P2E04 (Fab, V domains shown)
VH: QVQLVQSGAEVKKPGSSVKVSCKASGGTFSSYGVSWVRQAPGQGLEWMGWISPYSGNTDYAQKFQGRVTITADESTSTAYMELSSLRSEDTAVYYCARGLYYMDVWGKGTTVTVSS
VL: DIQMTQSPSSLSASVGDRVTITCRASQSISSWLAWYQQKPGKAPKLLIYDASNLETGVPSRFSGSGSGTDFTLTISSLQPEDFATYYCQQSYSTPLTFGGGTKLEIK
notes: Fab made in HEK293
In test [1], B1 gave a Kd of 286 nM, a koff of 0.0789 s⁻¹ and a kon of 545000 M⁻¹ s⁻¹.

B2: Fab clone R3G10-P1B07 (Fab, V domains shown)
VH: QVQLVQSGAEVKKPGASVKVSCKASGYTFTSYYMHWVRQAPGQGLEWMGIIHPGGGTTSYAQKFQGRVTMTRDTSTSTVYMELSSLRSEDTAVYYCARDKVYGDGFDPWGQGTLVTVSS
VL: DIQMTQSPSSLSASVGDRVTITCRASQSISRWLAWYQQKPGKAPKLLIFDASRLQSGVPSRFSGSGSGTDFTLTISSLQPEDFATYYCQQAEAFPYTFGQGTKVEIK
notes: Fab made in HEK293
Turning to B2, in test [2], the Kd was determined as 37.5 nM, the koff was 0.00615 s⁻¹ and the kon turned out to be 165000 M⁻¹ s⁻¹.

B3: Fab clone R3G10-P4E07 (Fab, V domains shown)
VH: QVQLVQSGAEVKKPGSSVKVSCKASGYTFTGYYMHWVRQAPGQGLEWMGRISPSDGSTTYAPKFQGRVTITADESTSTAYMELSSLRSEDTAVYYCARDMGDAFDIWGQGTTVTVSS
VL: not shown
notes: Fab made in HEK293
In test [2], B3 gave a Kd of 428 nM, a koff of 0.111 s⁻¹ and a kon of 477000 M⁻¹ s⁻¹.

B4: scFv G5-P3G01 (scFv, V domains shown)
VH: QVQLVQSGAEVKKPGASVKVSCKASGGTFSGYLVSWVRQAPGQGLEWMGWINPNSGGTNTAQKFQGRVTMTRDTSTSTVYMELSSLRSEDTAVYYCAREGYGMDVWGQGTTVTVSS
VL: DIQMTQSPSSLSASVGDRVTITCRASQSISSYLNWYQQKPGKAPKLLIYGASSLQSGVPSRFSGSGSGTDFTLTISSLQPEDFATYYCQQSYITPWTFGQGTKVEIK
B4: the “fold selective binding, target pHLA vs minipool of negative control pHLAs” value (from here on “fold selective binding, target pHLA”) in test [3] is not below 3 fold.

B5: scFv G5-P4B02 (scFv, V domains shown)
VH: QVQLVQSGAEVKKPGASVKVSCKASGYTFTGYYMHWVRQAPGQGLEWMGWMNPNIGNTGYAQKFQGRVTMTRDTSTSTVYMELSSLRSEDTAVYYCARGIADSGSYYGNGRDYYYGMDVWGQGTTVTVSS
VL: DIVMTQSPDSLAVSLGERATINCKTSQSVLYRPNNENYLAWYQQKPGQPPKLLIYQASIREPGVPDRFSGSGSGTDFTLTISSLQAEDVAVYYCQQYYTTPYTFGQGTKLEIK
notes: scFv
B5: in test [3], the “fold selective binding, target pHLA” value is not below 3 fold.

B6: Fab clone R3G8-P2C10 (Fab, V domains shown)
VH: QVQLVQSGAEVKKPGASVKVSCKASGYTFTSYYMHWVRQAPGQGLEWMGWINPYSGGTNYAQKFQGRVTMTRDTSTSTVYMELSSLRSEDTAVYYCAKGGIYYGSGSYPSWGQGTLVTVSS
VL: DIQMTQSPSSLSASVGDRVTITCRASQDVSTWLAWYQQKPGKAPKLLIYAASSLQSGVPSRFSGSGSGTDFTLTISSLQPEDFATYYCQQSHSTPQTFGQGTKVEIK
notes: Fab made in HEK293
In test [1], B6 showed a Kd of 17.7 nM, a koff of 0.0013 s⁻¹ and a kon of 75000 M⁻¹ s⁻¹.

B7: Fab clone G8-P1C11 (Fab, V domains shown)
VH: QVQLVQSGAEVKKPGASVKVSCKASGGTLSSYPINWVRQAPGQGLEWMGWISTYSGHADYAQKLQGRVTMTRDTSTSTVYMELSSLRSEDTAVYYCARSYDYGDYLNFDYWGQGTLVTVSS
VL: DIQMTQSPSSLSASVGDRVTITCQASQDISNYLNWYQQKPGKAPKLLIYAASSLQSGVPSRFSGSGSGTDFTLTISSLQPEDFATYYCQQSYSIPPTFGGGTKVDIK
notes: Fab made in HEK293; also called R3G8-P1C11
Take B7: in test [1], binding was put at a Kd of 178 nM, the koff came out at 0.0338 s⁻¹ and the kon was found to be 190000 M⁻¹ s⁻¹.

B8: scFv G5-P3G08 (scFv, V domains shown)
VH: QVQLVQSGAEVKKPGASVKVSCKASGYIFRNYPMHWVRQAPGQGLEWMGWINPDSGGTKYAQKFQGRVTMTRDTSTSTVYMELSSLRSEDTAVYYCARDNGVGVDYWGQGTLVTVSS
VL: DIQMTQSPSSLSASVGDRVTITCRASQGISNYLAWYQQKPGKAPKLLIYAASSLQSGVPSRFSGSGSGTDFTLTISSLQPEDFATYYCQQSYITPYTFGQGTKLEIK
notes: scFv
On to B8, for which, in test [3], the “fold selective binding, target pHLA” value was not below 3 fold.

The record behind these values is patent publication US20210061914A1 (published 2021).
